Reference: the supplement of paper PMC9112550, “Optimization of the antimicrobial peptide Bac7 by deep mutational scanning” (BMC Biology, 2022)

System: Escherichia coli TOP10
Assay: shrunken log2 fold change of peptide-encoding DNA abundance (4.5 h post-induction vs induction); higher = less antimicrobial activity (less host growth inhibition)
Conditions: time post-induction: 4.5 h; library: site-saturation at positions 5, 18, 19, 20
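Note: peptides expressed intracellularly from a pBAD plasmid library in pooled LB shake-flask culture, induced with 0.3% L-arabinose, DNA abundance read by NGS, three biological replicates, DESeq2 with apeglm shrinkage.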

| Sequence | shrunken log2 fold change |
| --- | --- |
| RRIRRRPPRLPRPRPRPKINPRP | -0.123 |
| RRIRIRPPRLPRPRPRPGGKPRP | -0.31 |
| RRIRLRPPRLPRPRPRPAGCPRP | 0.263 |
| RRIRHRPPRLPRPRPRPYREPRP | 0.0421 |
| RRIRFRPPRLPRPRPRPGMPPRP | -0.0207 |
| RRIRGRPPRLPRPRPRPFHQPRP | -0.199 |
| RRIRCRPPRLPRPRPRPLWAPRP | 0.321 |
| RRIRVRPPRLPRPRPRPCDGPRP | 0.0303 |
| RRIRPRPPRLPRPRPRPITTPRP | -0.139 |
| RRIRVRPPRLPRPRPRPMGDPRP | -0.104 |
| RRIRMRPPRLPRPRPRPTCCPRP | 0.213 |
| RRIRMRPPRLPRPRPRPYAHPRP | 0.013 |
| RRIRWRPPRLPRPRPRPVFCPRP | 0.119 |
| RRIRKRPPRLPRPRPRPEDAPRP | 0.054 |
| RRIRHRPPRLPRPRPRPTAGPRP | -0.0268 |
| RRIRYRPPRLPRPRPRPGYNPRP | -0.0489 |
| RRIRWRPPRLPRPRPRPIPYPRP | -0.031 |
| RRIRHRPPRLPRPRPRPKPEPRP | 0.0966 |
| RRIRRRPPRLPRPRPRPVAVPRP | 0.348 |
| RRIRNRPPRLPRPRPRPFFRPRP | -0.378 |
| RRIRLRPPRLPRPRPRPWRKPRP | 0.125 |
| RRIRNRPPRLPRPRPRPQWFPRP | -0.0391 |

| Sequence | shrunken log2 fold change |
| --- | --- |
| RRIRFRPPRLPRPRPRPCHKPRP | -0.443 |
| RRIRLRPPRLPRPRPRPIMWPRP | -0.0155 |
| RRIRVRPPRLPRPRPRPPTKPRP | 0.417 |
| RRIRRRPPRLPRPRPRPEMQPRP | 0.114 |
| RRIRARPPRLPRPRPRPDYQPRP | -0.0168 |
| RRIRVRPPRLPRPRPRPPMPPRP | 0.368 |
| RRIRFRPPRLPRPRPRPACMPRP | -0.263 |
| RRIRMRPPRLPRPRPRPWRYPRP | 0.166 |
| RRIRRRPPRLPRPRPRPMHCPRP | 0.505 |
| RRIRGRPPRLPRPRPRPPWEPRP | 0.528 |
| RRIRTRPPRLPRPRPRPWYGPRP | -0.379 |
| RRIRARPPRLPRPRPRPPSIPRP | -0.108 |
| RRIRMRPPRLPRPRPRPKPAPRP | 1.55 |
| RRIRERPPRLPRPRPRPMRKPRP | -0.0645 |
| RRIRIRPPRLPRPRPRPPSEPRP | -0.118 |
| RRIRQRPPRLPRPRPRPEVLPRP | 0.0411 |
| RRIRQRPPRLPRPRPRPSPFPRP | 0.0122 |
| RRIRPRPPRLPRPRPRPDEKPRP | -0.0591 |
| RRIRDRPPRLPRPRPRPKNSPRP | 0.788 |
| RRIRPRPPRLPRPRPRPVLDPRP | -0.304 |
| RRIRKRPPRLPRPRPRPGNRPRP | 0.143 |
| RRIRERPPRLPRPRPRPPPFPRP | 0.313 |

| Sequence | shrunken log2 fold change |
| --- | --- |
| RRIRLRPPRLPRPRPRPNIKPRP | -0.321 |
| RRIRGRPPRLPRPRPRPLADPRP | 1.68 |
| RRIRERPPRLPRPRPRPHICPRP | 0.0721 |
| RRIRVRPPRLPRPRPRPFLWPRP | -0.698 |
| RRIRCRPPRLPRPRPRPGTWPRP | 0.011 |
| RRIRMRPPRLPRPRPRPLFLPRP | -0.254 |
| RRIRPRPPRLPRPRPRPPQLPRP | 0.378 |
| RRIRDRPPRLPRPRPRPTSVPRP | -0.0218 |
| RRIRYRPPRLPRPRPRPEDRPRP | 0.119 |
| RRIRWRPPRLPRPRPRPHSSPRP | -0.0864 |
| RRIRERPPRLPRPRPRPILTPRP | -0.337 |
| RRIRDRPPRLPRPRPRPLLTPRP | 0.35 |
| RRIRKRPPRLPRPRPRPWMNPRP | -0.00146 |
| RRIRRRPPRLPRPRPRPCFEPRP | 0.0864 |
| RRIRNRPPRLPRPRPRPQKKPRP | 0.0889 |
| RRIRTRPPRLPRPRPRPYNQPRP | -0.33 |
| RRIRKRPPRLPRPRPRPYGDPRP | -0.224 |
| RRIRYRPPRLPRPRPRPWHKPRP | -0.377 |
| RRIRWRPPRLPRPRPRPQMSPRP | -0.149 |
| RRIRVRPPRLPRPRPRPEKMPRP | -0.3 |
| RRIRPRPPRLPRPRPRPWGGPRP | 0.702 |
| RRIRTRPPRLPRPRPRPWMGPRP | -0.116 |

| Sequence | shrunken log2 fold change |
| --- | --- |
| RRIRIRPPRLPRPRPRPQNQPRP | -1.03 |
| RRIRERPPRLPRPRPRPTCMPRP | -0.0554 |
| RRIRCRPPRLPRPRPRPSLPPRP | -0.0253 |
| RRIRERPPRLPRPRPRPQIVPRP | -0.108 |
| RRIRCRPPRLPRPRPRPDTKPRP | -0.158 |
| RRIRNRPPRLPRPRPRPNGYPRP | -0.0975 |
| RRIRRRPPRLPRPRPRPKEHPRP | 0.345 |
| RRIRMRPPRLPRPRPRPCQRPRP | 0.0132 |
| RRIRTRPPRLPRPRPRPTCCPRP | -0.0411 |
| RRIRNRPPRLPRPRPRPKCHPRP | 0.0244 |
| RRIRYRPPRLPRPRPRPEIFPRP | -0.159 |
| RRIRCRPPRLPRPRPRPIQIPRP | -0.0558 |
| RRIRIRPPRLPRPRPRPKQEPRP | 0.113 |
| RRIRDRPPRLPRPRPRPLHTPRP | -0.0544 |
| RRIRVRPPRLPRPRPRPYWSPRP | 0.000469 |
| RRIRTRPPRLPRPRPRPNKVPRP | -0.326 |
| RRIRMRPPRLPRPRPRPWEQPRP | 0.0405 |
| RRIRFRPPRLPRPRPRPVYMPRP | -0.969 |
| RRIRIRPPRLPRPRPRPVADPRP | 0.0861 |
| RRIRMRPPRLPRPRPRPAVFPRP | 0.383 |
| RRIRRRPPRLPRPRPRPEPEPRP | 0.837 |
| RRIRIRPPRLPRPRPRPLVWPRP | 0.0428 |

| Sequence | shrunken log2 fold change |
| --- | --- |
| RRIRSRPPRLPRPRPRPFGAPRP | 0.162 |
| RRIRFRPPRLPRPRPRPCWVPRP | -0.331 |
| RRIRCRPPRLPRPRPRPFCPPRP | -0.225 |
| RRIRSRPPRLPRPRPRPHCPPRP | -0.0154 |
| RRIRWRPPRLPRPRPRPPKEPRP | 0.433 |
| RRIRHRPPRLPRPRPRPSAGPRP | -0.182 |
| RRIRARPPRLPRPRPRPNDTPRP | -0.283 |
| RRIRGRPPRLPRPRPRPFVSPRP | -0.166 |
| RRIRRRPPRLPRPRPRPTLDPRP | 0.809 |
| RRIRWRPPRLPRPRPRPDTQPRP | -0.0933 |
| RRIRKRPPRLPRPRPRPNAKPRP | -0.0195 |
| RRIRQRPPRLPRPRPRPLKHPRP | -0.589 |
| RRIRQRPPRLPRPRPRPCQQPRP | -0.0108 |
| RRIRKRPPRLPRPRPRPSKGPRP | -0.0301 |
| RRIRIRPPRLPRPRPRPDDWPRP | -0.0592 |
| RRIRLRPPRLPRPRPRPGWNPRP | 0.000784 |
| RRIRRRPPRLPRPRPRPNSEPRP | 0.381 |
| RRIRKRPPRLPRPRPRPDSPPRP | -0.0585 |
| RRIRTRPPRLPRPRPRPAIFPRP | -0.0366 |
| RRIRMRPPRLPRPRPRPLFKPRP | -0.0689 |
| RRIRQRPPRLPRPRPRPRMPPRP | 0.216 |
